Series [1] has as its system mouse bone marrow-derived macrophages (BMDMs). The experiment in a line: ELISA of immune cytokine secretion in BMDMs under normal conditions. In kind it is cell-based. The following applies: normal (non-inflammatory) conditions, 24 h. On the procedure: Specifically, mouse bone marrow-derived macrophages (BMDMs) as mouse-derived immune cells were extracted from the mouse thighbone and shinbone, and then cultured in DMEM containing 10% fetal bovine serum (FBS) and antibiotics. Human macrophages (THP1) as human-derived immune cells were cultured in RPMI media containing 10% FBS and antibiotics.
The cultured cells were treated with AmTARS at 0.1 μM, 0.2 μM, and 0.5 μM for 24 h to obtain cell cultures. For cell removal, the media were centrifuged at 500×g for 10 min to obtain supernatants, which were then analyzed using an ELISA set (mouse interleukin (IL)-6, mouse IL-10, mouse tumor necrosis factor (TNF)-α, human IL-6, human IL-10, human TNF-α; BD Biosciences) to investigate the secretion of mouse- and human-derived immune cytokines. […]
Background: An ELISA detects its analyte on a solid surface through an enzyme-linked reagent.

The test system of series [2] is BMDMs from TLR2-KO mouse. The experiment in a line: IL-10 production in BMDMs from TLR2 knock-out mice. It is filed as cell-based. An excerpt: The TLR2-dependent immune function of AmTARS was further corroborated using TLR2 knock-out (KO) mice. […] However, IL-10 production by […] (U1/U2) was abolished in BMDMs from TLR2-KO mice, providing further evidence that AmTARS regulates host immune cells via its unique regions in a TLR2-dependent manner (FIG. 28D).

In series [3] the target is T1, mouse TLR2 on bone marrow-derived macrophages (BMDMs), Q9QUN7.
T1 chain: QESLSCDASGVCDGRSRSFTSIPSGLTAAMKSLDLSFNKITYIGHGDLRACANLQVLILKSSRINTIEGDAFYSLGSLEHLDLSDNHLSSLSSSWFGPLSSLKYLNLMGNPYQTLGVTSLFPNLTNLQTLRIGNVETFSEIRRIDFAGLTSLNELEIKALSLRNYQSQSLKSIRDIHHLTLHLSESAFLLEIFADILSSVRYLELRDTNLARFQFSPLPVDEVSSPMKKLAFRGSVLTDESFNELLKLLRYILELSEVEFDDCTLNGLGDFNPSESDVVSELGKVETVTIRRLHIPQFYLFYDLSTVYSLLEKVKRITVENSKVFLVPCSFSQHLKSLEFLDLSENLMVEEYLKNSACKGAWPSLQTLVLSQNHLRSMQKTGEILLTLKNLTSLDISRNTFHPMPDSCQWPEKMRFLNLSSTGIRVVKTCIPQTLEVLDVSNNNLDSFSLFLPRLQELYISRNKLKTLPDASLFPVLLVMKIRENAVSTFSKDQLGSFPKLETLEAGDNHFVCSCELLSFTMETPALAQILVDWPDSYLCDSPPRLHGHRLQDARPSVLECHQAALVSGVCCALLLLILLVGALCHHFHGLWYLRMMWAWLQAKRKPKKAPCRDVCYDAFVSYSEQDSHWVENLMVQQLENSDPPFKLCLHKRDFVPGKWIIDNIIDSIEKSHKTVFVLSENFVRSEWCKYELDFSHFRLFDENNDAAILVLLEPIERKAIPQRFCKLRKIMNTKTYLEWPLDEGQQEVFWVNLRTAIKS

In series [4] the target is T2, TLR4-FLAG (UniProt O00206 24-839, limits assumed).
T2 construct: not shown: FLAG tag
T2 sequence (O00206 24-839 limits assumed): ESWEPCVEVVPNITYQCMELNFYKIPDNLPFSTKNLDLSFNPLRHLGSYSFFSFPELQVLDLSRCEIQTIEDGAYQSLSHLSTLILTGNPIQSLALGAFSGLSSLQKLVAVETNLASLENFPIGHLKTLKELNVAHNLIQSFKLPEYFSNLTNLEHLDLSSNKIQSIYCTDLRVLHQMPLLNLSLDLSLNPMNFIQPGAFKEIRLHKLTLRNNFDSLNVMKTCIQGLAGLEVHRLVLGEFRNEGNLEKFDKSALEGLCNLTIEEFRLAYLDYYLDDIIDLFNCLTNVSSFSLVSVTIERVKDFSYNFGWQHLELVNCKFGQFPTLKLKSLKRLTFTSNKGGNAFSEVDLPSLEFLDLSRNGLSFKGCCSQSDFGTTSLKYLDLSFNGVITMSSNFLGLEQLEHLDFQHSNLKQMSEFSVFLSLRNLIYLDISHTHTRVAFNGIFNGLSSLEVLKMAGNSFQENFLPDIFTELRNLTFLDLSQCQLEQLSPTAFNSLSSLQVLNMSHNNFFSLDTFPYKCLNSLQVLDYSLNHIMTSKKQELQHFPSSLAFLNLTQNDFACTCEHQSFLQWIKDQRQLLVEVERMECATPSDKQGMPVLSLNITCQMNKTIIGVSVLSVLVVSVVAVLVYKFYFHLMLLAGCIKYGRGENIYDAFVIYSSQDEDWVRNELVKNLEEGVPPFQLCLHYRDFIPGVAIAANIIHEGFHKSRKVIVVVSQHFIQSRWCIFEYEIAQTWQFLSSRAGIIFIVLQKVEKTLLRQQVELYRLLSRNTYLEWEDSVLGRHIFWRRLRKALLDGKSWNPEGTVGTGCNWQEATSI
Description: Strep pull-down from HEK 293T cells co-expressing Strep-AmTARS and TLR4-FLAG, immunoblot. On the technique in general: A western blot detects proteins with antibodies after separation by electrophoresis.

This note sets out measurements from patent US12636342B2, “TARS derived from Akkermansia muciniphila or fragment thereof, and use thereof” (KOREA RESEARCH INSTITUTE OF BIOSCIENCE AND BIOTECHNOLOGY, priority 2020, dated 2026).

B1: EcTARS (U1/U2): Engineered EcTARS incorporating the AmTARS U1 and U2 regions, SEQ ID NO: 18 (protein)
chain: MPVITLPDGSQRHYDHAVSPMDVALDIGPGLAKACIAGRVNGELVDACDLIENDAQLSIITAKDEEGLEIIRHSCAHLLGHAIKQLWPHTKMAIGPVIDNGFYYDVDLDRTLTQEDVEALEKRMHELAEKNYDVIKKKVSWHEARETFANRGAESGELGALGPRSEPESYKVSILDENIAHDDKPGLYFHEEYVDMCRGPHVPNMRFCHHFKLMKTAGAYWRGDSNNKMLQRIYGTAWADKKALNAYLQRLEEAAKRDHRKIGKQLDLYHMQEEAPGMVFWHNDGWTIFRELEVFVRSKLKEYQYQEVKGPFMMDRVLWEKTGHWDNYKDAMFTTSSEKLSQEGASCAELFNGLATGTIEGNREYCIKPMNCPGHVQIFNQGLKSYRDLPLRMAEFGSCHRNEPSGSLHGLMRVRGFTQDDAHIFCTEEQIRDEVNGCIRLVYDMYSTFGFEKIVVKLSTRPEKRIGSDEMWDRAEADLAVALEENNIPFEYQLGEGAFYGPKIEFTLYDCLDRAWQCGTVQLDFSLPSRLSASYVGEDNERKVPVMIHRAILGSMERFIGILTEEFAGFFPTWLAPVQVVIMNITDSQSEYVNELTQKLSNAGIRVKADLRNEKIGFKIREHTLRRVPYMLVCGDKEVESGKVAVRTRRGKDLGSMDVNEVIEKLQQEIRSRSLKQLEE
modifications: EcTARS(U1/U2)
As to B1, in series [1], the “secretion/production of IL-10” value was “conferred the ability to trigger IL-10 production”. Moreover, in series [2], the IL-10 production result was “abolished”.

B2: Strep-tagged Akkermansia muciniphila threonyl-tRNA synthetase (Strep-AmTARS) (enzyme)
chain: MSEHKERKTLEERQQMSDLERLRHSCAHVLATAICRLWPDAQLAGGPAVDNGFYYDVELDHRISTEDFERIEEEMKKVVKENQVFQKEVISRADAMKMAESGELGALGPRSEPSRFKIDLLNDIPEDEEISLYRNGDFTDLCAGPHVGRTGNCKAFKIMSVASAFYKGDKNRPMLQRIYGTCFPNRTQLDEHLERLEEARRRDHRKLGRELGLFCIDESVGQGLILWKPKGALIRRSLQDFITEELDKLGYSQVYTPNIGKLDLYRTSGHFPYYQESQYAPIPERDAMEKLSQEGASCAELFNGLATGTIEGYMLKPMNCPHHIKIYANDAHSYRDLPVRLAEFGTVYRWEQSGELGGMTRVRGFTQDDAHIFCTPDQLAGEIRQCLGIVKTIFGTLGMTDYRVRLSMRDPESDKYVGSPENWDKAEQALREAAEWLGADYSEEAGEAAFYGPKIDFIVRDAIGREWQLGTVQVDYNLPERFDLHYTGADNKPHRPVMVHRAPFGSMERFTGLLIEHFEGKFPTWLSPEQVRVLPISDKVTDVAAAHRTALAARGVRVTVDETPDKIGAKIRNARLDRVPYMLVLGQREAEDGTVSVRHRDKGDLGAMPFEQFADLVAREIAERHISPVI
notes: The tag is put N-terminal from the name 'Strep-AmTARS'; not shown: 2 x Strep tag from vector pEXPR-IBA105
In the case of B2, the “activation of PI3K and AKT, and phosphorylation of GSK3β at Ser9 (western blot) in BMDMs” value in series [3] was “AmTARS activated PI3K and AKT, and subsequently inhibited GSK3β activity via AKT-mediated phosphorylation at Ser9, in BMDMs”. The binding result in series [4] is “no binding”.
